Results: paper PMC6323126, “Architecture, substructures, and dynamic assembly of STRIPAK complexes in Hippo signaling” (Cell Discovery, 2019)

T1: C-terminal domain (residues 421–837) of STRIP1, recombinant (UniProt Q5VSL9 421-837)
T1 sequence (looked up): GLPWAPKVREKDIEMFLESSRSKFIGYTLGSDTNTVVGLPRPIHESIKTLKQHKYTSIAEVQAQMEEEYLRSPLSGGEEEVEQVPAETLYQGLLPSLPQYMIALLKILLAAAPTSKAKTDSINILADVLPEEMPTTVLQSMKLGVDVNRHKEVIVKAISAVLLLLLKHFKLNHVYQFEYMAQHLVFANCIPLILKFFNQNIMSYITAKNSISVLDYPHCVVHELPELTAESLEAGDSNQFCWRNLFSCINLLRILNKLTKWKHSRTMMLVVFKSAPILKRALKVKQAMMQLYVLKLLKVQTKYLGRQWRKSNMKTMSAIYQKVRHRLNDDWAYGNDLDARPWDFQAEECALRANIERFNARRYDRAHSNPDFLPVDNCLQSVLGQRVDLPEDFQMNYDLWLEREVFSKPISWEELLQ

T2: FHA domain (residues 5–135) of SLMAP (human, UniProt Q14BN4 5-135)
T2 construct: also called SLMAP (FHA); SLMAP FHA domain; source: E. coli BL21 (DE3) CodonPlus, purified
T2 sequence (looked up): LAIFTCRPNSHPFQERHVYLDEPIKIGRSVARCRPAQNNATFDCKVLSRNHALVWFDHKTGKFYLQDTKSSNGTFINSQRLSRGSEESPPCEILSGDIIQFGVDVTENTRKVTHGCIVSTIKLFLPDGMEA

B1: MST4 kinase domain (residues 1–300) (domain or fragment)
chain: not shown
notes: MST4 (STK26), human, residues 1-300; also called N-terminal kinase domain of MST4; source: E. coli BL21 (DE3) CodonPlus, purified
B2: STRN3 coiled-coil domain (CC, amino acid residues 64–145) (domain or fragment, human, UniProt Q13033 64-145, looked up)
chain: TIPGILHYIQHEWARFEMERAHWEVERAELQARIAFLQGERKGQENLKKDLVRRIKMLEYALKQERAKYHKLKYGTELNQGD
notes: also called STRN3 CC; source: E. coli BL21 (DE3) CodonPlus, purified
B3: SIKE1 CC1 (residues 5–65) (domain or fragment, human, UniProt Q9BRV8 5-65, looked up)
chain: IEKILTDAKTLLERLREHDAAAESLVDQSAALHRRVAAMREAGTALPDQYQEDASDMKDMS
notes: SIKE1, human, residues 5-65; Homodimer within the 2:2 crystal complex; also called residues 5–65 of SIKE1; source: E. coli BL21 (DE3) CodonPlus, purified
B4: STRIP1 (765–837) (domain or fragment, UniProt Q5VSL9 765-837, looked up)
chain: QAEECALRANIERFNARRYDRAHSNPDFLPVDNCLQSVLGQRVDLPEDFQMNYDLWLEREVFSKPISWEELLQ
B5: SIKE1 second coiled-coil (CC2) region, residues 72–121 (domain or fragment, human, UniProt Q9BRV8 72-121, looked up)
chain: LLSQENTQIRDLQQENRELWISLEEHQDALELIMSKYRKQMLQLMVAKKA
notes: Homotetramer in the apo crystal, homodimer in the crystal with the STRN3 peptide; A Se-Met form was used for phasing; also called SIKE1 CC2; source: E. coli BL21 (DE3) CodonPlus, purified
B6: MST2 kinase domain (residues 1–308) (domain or fragment, human, UniProt Q13188 1-308, looked up)
chain: MEQPPAPKSKLKKLSEDSLTKQPEEVFDVLEKLGEGSYGSVFKAIHKESGQVVAIKQVPVESDLQEIIKEISIMQQCDSPYVVKYYGSYFKNTDLWIVMEYCGAGSVSDIIRLRNKTLIEDEIATILKSTLKGLEYLHFMRKIHRDIKAGNILLNTEGHAKLADFGVAGQLTDTMAKRNTVIGTPFWMAPEVIQEIGYNCVADIWSLGITSIEMAEGKPPYADIHPMRAIFMIPTNPPPTFRKPELWSDDFTDFVKKCLVKNPEQRATATQLLQHPFIKNAKPVSILRDLITEAMEIKAKRHEEQQRE
notes: also called kinase domain of MST2; source: E. coli BL21 (DE3) CodonPlus, purified
B7: MST2 middle linker region (residues 308–435) (domain or fragment, human, UniProt Q13188 308-435, looked up)
chain: ELEEEEENSDEDELDSHTMVKTSVESVGTMRATSTMSEGAQTMIEHNSTMLESDLGTMVINSEDEEEEDGTMKRNATSPQVQRPSFMDYFDKQDFKNKSHENCNQNMHEPFPMSKNVFPDNWKVPQDG
notes: also called linker region of MST2; source: E. coli BL21 (DE3) CodonPlus, purified
B8: MST4 (recombinant) (enzyme)
chain: not shown
notes: MST4 (STK26), human; also called STK26; source: E. coli BL21 (DE3) CodonPlus, purified
B9: MST2 (recombinant, wildtype) (enzyme, human, UniProt Q13188 1-491, looked up)
chain: MEQPPAPKSKLKKLSEDSLTKQPEEVFDVLEKLGEGSYGSVFKAIHKESGQVVAIKQVPVESDLQEIIKEISIMQQCDSPYVVKYYGSYFKNTDLWIVMEYCGAGSVSDIIRLRNKTLIEDEIATILKSTLKGLEYLHFMRKIHRDIKAGNILLNTEGHAKLADFGVAGQLTDTMAKRNTVIGTPFWMAPEVIQEIGYNCVADIWSLGITSIEMAEGKPPYADIHPMRAIFMIPTNPPPTFRKPELWSDDFTDFVKKCLVKNPEQRATATQLLQHPFIKNAKPVSILRDLITEAMEIKAKRHEEQQRELEEEEENSDEDELDSHTMVKTSVESVGTMRATSTMSEGAQTMIEHNSTMLESDLGTMVINSEDEEEEDGTMKRNATSPQVQRPSFMDYFDKQDFKNKSHENCNQNMHEPFPMSKNVFPDNWKVPQDGDFDFLKNLSLEELQMRLKALDPMMEREIEELRQRYTAKRQPILDAMDAKKRRQQNF
notes: MST2 (STK3), human; also called STK3; Hippo kinase MST2; source: E. coli BL21 (DE3) CodonPlus, purified
B10: GST-tagged MST2 (enzyme, human, UniProt Q13188 1-491, looked up)
chain: B9 chain
notes: MST2 (STK3), human; also called MST2/pMST2; source: E. coli BL21 (DE3) CodonPlus, purified; not shown: GST, N-terminal, kept
B11: STRN3 fragment (residues 64–341), tag not told (domain or fragment, human, UniProt Q13033 64-341, looked up)
chain: TIPGILHYIQHEWARFEMERAHWEVERAELQARIAFLQGERKGQENLKKDLVRRIKMLEYALKQERAKYHKLKYGTELNQGDLKMPTFESEETKDTEAPTAPQNSQLTWKQGRQLLRQYLQEVGYTDTILDVRSQRVRSLLGLSNSEPNGSVETKNLEQILNGGESPKQKGQEIKRSSGDVLETFNFLENADDSDEDEENDMIEGIPEGKDKHRMNKHKIGNEGLAADLTDDPDTEEALKEFDFLVTAEDGEGAGEARSSGDGTEWDKDDLSPTAEVW
notes: source: E. coli BL21 (DE3) CodonPlus, purified
B12: MBP-tagged STRN3 fragment (residues 64–341) (domain or fragment, human, UniProt Q13033 64-341, looked up)
chain: B11 chain
notes: source: E. coli BL21 (DE3) CodonPlus, purified; not shown: MBP, N-terminal, kept

Tests used:
[1] = biological target: B5; test: crystal structure; SIKE1 CC2 mixed with STRN3 peptide (166–190) at 1:1.2 molar ratio, 1.75 Å; 35% MPD, 0.1 M imidazole (pH 7.5), 16 °C; conditions: both partners purified
[2] = biological target: B5; test: ITC; iTC200, 25 °C, 20 mM HEPES (pH 7.5), 100 mM NaCl; conditions: both partners purified
[3] = biological target: T3, STRIP1 (full-length, His-tagged, insect cells) (UniProt Q5VSL9 1-837); test: pull-down; pulldown with purified recombinant proteins shown in supplementary figures; whether GST or MBP and who carried the tag not told; conditions: both partners purified
T3 construct: STRIP1, full length; His tag is TEV-cleavable; also called His-STRIP1; FAM40A; source: High Five insect cells (baculovirus), purified

[4] = biological target: B9; test: pull-down; GST pulldown: GST-tagged protein, partner and glutathione Sepharose mixed at 4 °C for 1 h in 20 mM HEPES (pH 7.5), 100 mM NaCl; eluted with 20 mM reduced glutathione; SDS-PAGE, Coomassie staining; conditions: both partners purified
[5] = biological target: T1, C-terminal domain (residues 421–837) of …; test: pull-down; pulldown with purified recombinant proteins shown in supplementary figures; whether GST or MBP and who carried the tag not told; conditions: both partners purified
[6] = biological target: B1; test: as above; conditions: both partners purified
[7] = biological target: T3, STRIP1 (full-length, His-tagged, insect …); test: pull-down; MBP pulldown: MBP-tagged protein, partner and amylose resin mixed at 4 °C for 1 h in 20 mM HEPES (pH 7.5), 100 mM NaCl; eluted with 20 mM maltose; SDS-PAGE, Coomassie staining; conditions: both partners purified
[8] = biological target: the molecule itself; test: crystal structure; SIKE1 CC1-SLMAP CC1 complex reconstituted 1:1 and gel-filtered, 2.3 Å; 0.1 M sodium citrate (pH 5.5), 15% PEG 6000, 16 °C
[9] = biological target: B2; test: ITC; iTC200, 25 °C, 20 mM HEPES (pH 7.5), 100 mM NaCl; conditions: both partners purified
[10] = biological target: the molecule itself; test: crystal structure; apo SIKE1 CC2, 1.5 Å; 0.1 M Tris (pH 8.5), 0.7 M ammonium tartrate dibasic, 16 °C
[11] = biological target: the molecule itself; test: crystal structure; SIKE1 CC2 mixed with STRN3 peptide (166–190) at 1:1.2 molar ratio, 1.75 Å; 35% MPD, 0.1 M imidazole (pH 7.5), 16 °C
[12] = biological target: T2, FHA domain (residues 5–135) of SLMAP; test: pull-down; GST pulldown: GST-tagged protein, partner and glutathione Sepharose mixed at 4 °C for 1 h in 20 mM HEPES (pH 7.5), 100 mM NaCl; eluted with 20 mM reduced glutathione; SDS-PAGE, Coomassie staining; conditions: both partners purified
[13] = biological target: T3, STRIP1 (full-length, His-tagged, insect …); test: as above; conditions: both partners purified
[14] = biological target: T3, STRIP1 (full-length, His-tagged, insect …); test: pull-down; pulldown with the kinase dephosphorylated with λPPase and then autophosphorylated with ATP (and magnesium ion); conditions: both partners purified

How did the “stoichiometry N” value [1] turn out when QNSQLTWKQGRQLLRQYLQEVGYTD (peptide, UniProt Q13033 166-190, looked up) [STRN3 peptide (residues 166–190)] was run?
The value was 2 SIKE1 CC2 per STRN3 peptide.

And the Kd [2]?
The Kd was 2900 nM.

Does B1 bind [3]?
Result: binds

Which results are given for B2?
binding result [4]: binds; binding result [5]: binds; binding result [6]: binds; binding result [7]: binds

Which “stoichiometry N” value [8] does the source give for B3 here?
Its value is 2.

With B4 as the binder, how does the Kd [9] read?
The Kd was 1600 nM.

With B5 as the binder, how does the “stoichiometry N” value [10] read?
The value was 4.

What about the “stoichiometry N” value [11] of the same binder?
The value was 2.

Does B6 bind [7]?
Result: binds

Does B7 bind [12]?
Result: binds

Does B8 bind [13]?
Result: binds

Does B9 bind [13]?
Result: binds

Does B10 bind [14]?
Result: binds

Does B11 bind [4]?
Result: binds

Does B12 bind [7]?
Result: binds
